The results in this text go back to patent US20210292412A1 (CHENGDU CONMED BIOSCIENCES, published 2021).

The experiment has as its target T1, human CD47 on CCRF-CEM cells (CD47 positive cells) (human, UniProt Q08722 19-323).
T1 construct: whole, on cells; also called hCD47-expressing tumor cells CCRF-CEM; CD47 receptor on the cell surface
The experiment can be described thus: CD47-SIRPα blocking experiment, FIG. 5 legend.

B1: hybridoma positive clone 10B8 (antibody, V domains shown)
VH: QIQLQQSGPDLVKPGASVKISCKASGYTFTDYYIHWMKQKPGQGLEWIGWIYPGSGNTKYNEKFKGKATLTVDTSSSTPYMQLSSLTSEDTAVYFCARRREDSFDYWGQVTTLTVSS
VL: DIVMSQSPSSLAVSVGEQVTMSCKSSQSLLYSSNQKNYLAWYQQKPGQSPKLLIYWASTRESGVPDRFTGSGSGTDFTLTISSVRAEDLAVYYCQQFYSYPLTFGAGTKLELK
notes: Mouse hybridoma supernatant in the assay; Variable regions are printed for subclone 10B8-B8; also called Clone 10B8-B8
With B1, the binding result is given as “binds”.
